Experiment: soluble on expression in E. coli; label from the status in PepcDB or PDB records
For “MGSDKIHHHHHHMDGTRERPMRKIIAATFVSLDGVMQAPGGPEEDPVGGFKFGGWTFHYFDEVGGAAMDELFSKPFTLLLGRRTYDIFTAYWPYQKDPIADAFNPATKYVATHRPDTLTWQNTQWLGEDIVAALRRLSKQDGPDLLIQRSADLIQTLLANGLIDEIRLMIFPLLLGKGKRLFGDGAMPAAFKLVKSQTSSTGVIIATYERSGEIEVGSFVMGEPSVAELERRRNWK”, the “soluble on expression in E. coli” value was “not soluble”. For “MPDYDLIAILGPTASGKTPFAAALAAELNTEIISADSRQIYRGMDLGTGKDLEDYTINGRQIPYHLIDIADPGYKYNVFEYQRDFLTAYETIKQKGCLPVLCGGTGLYLESVLKGYRLIPVPENQELRVRLAEKSLEELTAILSSYKTLHNSTDVDTVKRAIRAIEIEEYYAKTPIEEREFPQLNSLIIGVDIDRELRREKITRRLKQRLDDGMVEEVRRLLAEGIQPDDLIYYGLEYKYLTLYAIGKMTYDEMFTGLETAIHQFAKRQMTWFRGMERRGFTIHWVDASLPMEEKINFVKQKLKEFLEHHHHHH”, the “soluble on expression in E. coli” value was “soluble”. For “MGSDKIHHHHHHAAPGDLQEKLAALKGISGIEKLQSDYYPEKYVVRITQQVDPKDPAAGTFTQRVIVGHVGYDRPTIIVTEGYGAAYALNPKYQEELSKLLNANLVFVEYRYFLESTPEPKNWDYLTAENSAYDLHNVRNTFKQIYPGKWISTGISKGGQTTMLYRAFFPDDVDFSVPYVGPLCKGVEDGRHEPFLRKVGTKAEREKIQDFQLEVLKRKSDMLPLLESYCKNKNLTFRIPMPEVLDYCVLEYSFALWQWGTSVSTIPSKSADDQALFDHLMEISGPDYFAENQPNISFFVQAARELGYYGYDVKPFKKYLTIDSAHGYLNRIMLPEELVGKVDFRPALYHKIYNFLKDNDPKMIFIYGEIDPWSAAMVPAFKGKKNEQIYIQPRGSHRARIGNMPEDMKERILTQMNKWLAE”, the “soluble on expression in E. coli” value was “not soluble”. With “MIIVYTTFPDWESAEKVVKTLLKERMIACANLREHRAFYWWEGKIEEDKEVGAILKTREDLWEELKERIKELHPYDVPAIIRIDVDDVNEDYLKWLIEETKK” the “soluble on expression in E. coli” value was “soluble”. In the case of “MGSDKIHHHHHHMNIRILGCHGSQVPGCNTTSFLVEENVLIDAGSITSTLTAEEQVKVDYIFVTHAHLDHVKEMMFMVDNLWYLQKSNPLTIVSIEPVIHALKTHLFNGLIWPDFSSLPNAENPVLRYEILEVGGKRNIGSFAVTAISVNHTVETVSYVIETGQGSMIFIGDTGPTEEIWKVANSIEDLKAIFVETSLPDEMNHIAEMTGHLTPAMLMKELFKLNNKNLDIYLYHMKDFYSKLITRQVAAMNQNRLHILEDGQTVRI”, the “soluble on expression in E. coli” value is reported as “not soluble”. With “MSKRRYLTGKEVQAMMQAVCYGATGARDYCLILLAYRHGMRISELLDLHYQDLDLNEGRINIRRLKNGFSTVHPLRFDEREAVERWTQERANWKGADRTDAIFISRRGSRLSRQQAYRIIRDAGIEAGTVTQTHPHMLRHACGYELAERGADTRLIQDYLGHRNIRHTVRYTASNAARFAGLWERNNLINEKLKREEV” the “soluble on expression in E. coli” value was “not soluble”. With “MSLKISKLKKNVVLKNGTIIDPFNNYEKKGDIHIENGKIKAVGKIPTPKSSEIIDCKNLNITHGFFDLHVHFREPGGEDKEDLNSGSLAALAGGFTGVCTMPNTNPPIDSPESIRYIIDRSEECPIYIYPIGSITKSQEGKELTEMGAMLSQGAVAFSDDGLPISDAGVMYNALDYSSMFDVPIINHAEDECLKQDSVMHEGEVSTHLGLPGSPDITESNMVFRDLELSIRAGARIHIPHVSSEKSVNHIKTMKKKSDRITAEVSPHHIFFCDEDLYSFDTNLKVAPPIRTKNDRKALIDALKNGIIDCIATDHAPHTIEEKEGTFDIAPFGMIGLESCFGAVNKVLTKDKKISHLELIKLLTVNPRKIMKLNQDLFKEGTNAEIAIYDPNIEWKFSLENIYSKSNNSPLFKEGHHHHHH” the “soluble on expression in E. coli” value was “not soluble”. With “MGSDKIHHHHHHMEKSEEKEIICRMFNSPLPHPSQNHLLAALPAMELGDLIPHLELIHMRAGDILCEAGDQLPYAYFPASAIISLHYILENGASSEIANVGREGMLGVSLFMGGETSSNWATVQIPGFAYRLKAAFLSQELKRGGQLQWILLRYSQALITQIAQIGVCNRYHTIEQQLCRWFLLTLDRLDSSELSMTQELIANALGVSRESVAGVAGKLQGRGIIRYQRGHITVLNRTGLETGACECYETIKKEFDDALDDVRKPTLHQGDQSSKTLPLL” the “soluble on expression in E. coli” value was “not soluble”. In the case of “MNAPRCLRRLLERQWRQGGWLSTLLRPLAALTGLVVARKRNAYLTGARAAWRAPVPVVVVGNIYVGGTGKTPVVIEVVRQLQARGWTPGVVSRGYGVDVGAAPRVGQGQLAAADYGDEPALIARATGAAIAVHPHRPRAVQALLRAHPGVDVVVSDDGLQHLALARDVEIVVQDERGVGNGRLLPAGPLREPAQRLADVDAIVTNAGRPRAAAAPAAGAPRQLAMWLEPTHAQRVTDGATRTLADLAALPPARLAAAAGIGNPARFFQTLEQAGIRPAHTLALPDHYAYAQSPFTALDADLILVTAKDAIKCAALDDPRLWAVQVGTRLSDPDFGDWLSATLRARQPKLAAALEHHHHHH”, the “soluble on expression in E. coli” value is reported as “not soluble”. For “MSGEGDTTLKAICYKPGSLQLLDQRKLPLETIYLEIRDASDGWSAIQEMVVRGAPAIAIAAALSLAVEVFNFHGFDGSASDAVAFLENKLDYLVSSRPTAVNLADAALKLKHVIAKALATATEAKSIFKAYIEASEDMLEDDVVSNKAIGNFGLSLLRQQAKNPDKLSVLTHCNTGSLATAGYGTALGVIRALHTQGILERAYCTETRPFNQGSRLTAFELVHEKIPATLIADSAAAALMKDGRVDGVIVGADRVASNGDTANKIGTYSLALCAKHHGIPFYVAAPLTSVDLSLSSGKEIVIEERSPKELMHTHGGLGERIAAPGISVWNPAFDMTPAELIAGIITEKGVITKNGNDTFDISSFAKKITGNSSR”, the “soluble on expression in E. coli” value was “soluble”. For “MSDDPNTTQERAMEGPSENQAARQLEGNQEEAQRQPKEEQADREEAKGEEEAPQVAAALPIPDSPFLTELARLLRGSLRPYLNTEPDEVIEAARQDHQLDQEVANENLLQYICRTLVESNDMGKLAEIRELFARTPEDPAFNTPAGIDDSAMNQFYELIRDCRVVPEDDQTFVPRQALATRIHLIIDSFQARRESEFLRQWCQQNIVCLLYGNPVPEMKDFAYRILIEMLTSSSTWTAELESFANELSRKRGTFINDYWATIRDQNEAGDLDPKRTLFADFRDQHSVFGNVQFDIFRERLAQLEKLWHSQMRMFDVPDKVLCVTGIVTDTMTEMLMGVKDGKPNITPFLKKARIFYRLSDGAETSEAPAEASARASEAPEAPALPPKRSRGIKRKLSEYAEELFESKKPKSDELPTAEQWMYFLQHCLQGPEQDEQRGGNQ”, the “soluble on expression in E. coli” value was “not soluble”. With “TTLASIGKDIIEDADGIAMPHQWLEGNLPVSAKCTVCDKTCGSVLRLQDWRCLWCKAMVHTSCKESLLTKC” the “soluble on expression in E. coli” value was “soluble”. For “MSLQRSYCYQLTRRFCQSHEHTKLAKWLNINSKLNPFRPDPPVGGSPFLHGVGDEDKPVYIPQDVRVGHTFVVGTTRVGKTRLASILINQDIRNGDAVIVVDPKGDQDLVRDMVAACKVSGRTEDFKIVHLGFPEQSAQYNPLKKFDQISEVATRITDAISAEGEGKQFAAFAWKYVNIVAICLEEMNQPITYQTIAFYISRLEQLLMSYADNILPNHYLNYHQEIDDIIEEHDSKIGKNNKTKSPMERHQAVIQYIKDHINKTIKSNNAEALHDQILIDLYDAAIMDKHYYDKITASVGPVLSEINKSNASKILSSKAQPGDIELMDVIKNKKVLYIGLDSLTNPNIAQAVGKAFLSDLVSTAGKIYKEEGHHHHHH”, the “soluble on expression in E. coli” value was “soluble”. With “MKKDIILSGVGGQGILSIATVIGKAALKDGLYMKQAEVHGMSQRGGDVQSNLRISDQPIASDLIPSGKCDLIISLEPMEGLRYLPYLGHEGWLVTNETPFVNIPNYPAESDVMAEINKLPHKVVLNVDKVAKELGSTRVANIVLLGATIPFLGIDYEKIQDSIREIFQRKGDAIVELNLKALAAGKEIAEK” the “soluble on expression in E. coli” value was “soluble”. For “MKHSLPDLPYDYGALEPHINAQIMQLHHSKVHAAYVNNLNVTEEKYQEALAKGDVTAQIALQPALKFNGGGHINHSIFWTNLSPNGGGEPKGELLEAIKRDFGSFDKFKEKLTAASVGVQGSGWGWLGFNKERGHLQIAACPNQDPLQGTTGLIPLLGIDVWEHAYYLQYKNVRPDYLKAIWNVINWENVTERYMACKK”, the “soluble on expression in E. coli” value was “soluble”. In the case of “GSRIAKRTAINKTKKADVKAIADAWQINGEKELELLQQIAQKPGALRILNHSLRLAAMTAHGKGERVNEDYLRQAFRELDLDVDISTLLRN”, the “soluble on expression in E. coli” value is reported as “soluble”. For “MGSDKIHHHHHHMFRPQDDFTYLMPVHFGGGKFDPETLVTQKATALSLSFETERDLLENYIPEGFELLAPEVQVAFNKFTEINWLHGGQYNLINVAAPVRFHGKKDELDGAYTLVVWENKTAPILGGREQTGIPKIYADIEDLHIVRPHFATTVSYEGNTFLNMDFEATGSITGRDLDALKSQFLTMNTLGWRYIPKVGAPGAELSQFVLYPQGMEVETAEVGKGSLKWTELTPMQSPAQYYIVNSLASLPIKRVTQAVLVEGRAILRAMGARVIE”, the “soluble on expression in E. coli” value was “not soluble”. In the case of “MGSDKIHHHHHHMKHYRQVVSPQLRQQALDWILAAAQRPDPALEPEFDIADDERREAKKVRNLHRHDPLFWDDWFARSGLDALVRDHLRKPRLLRHAAFIKRHADESYIPLHQDIALWEKRYESAQTFWVALTPSRNDNGGMFYYPDDRTIFPHEFDLAYPMFKCIDLQANGISREQLVDAELDAGDVLVWPARTAHGSHNNRSGQLRIGMPIVFVEDDEFHQLNREDSMKTWIASNLKSVFPDEAITEDNLDHYLPQLCDYSLKMVTFLARFSRQFGHAPKIHDFIREPRLATLSASDAGARR”, the “soluble on expression in E. coli” value is reported as “not soluble”. With “MSLRKGIIAAGNMLVDHVHQIRQWPERGWLVEIVHSERATGGAPLNVLLTLAKMHAGLPLQAVGLIGEDNDGDYITAMLDQYHINRQLVQRTSSAPTSMTQVMTDAEGQRTFFHSPGANRLLDLPAFEPLDAPLKIFHLGYLLLLESLDRPDEVYGTRSARLLAQMRERGYEVSLDLVSRKGDPRYRPLVLPALKHLDYLTINELEASEFSGLEIRLPNGEPHVANIARAASALLDAGVRQRVVIHCPEGAWGVSRTEAGRWVPSWRLPPEEIIGSVGAGDAFCAGLLYGSHERWPLTASLQLAHACARASLQAANAIDGAKTLPELQAFIQLQNGEGHHHHHH” the “soluble on expression in E. coli” value was “soluble”. For “MGSDKIHHHHHHMSSSQQIAKNARKAGNILKTISNEGRSDILYKIHDALKANAHAIEEANKIDLAVAKETGLADSLLKRLDLFKGDKFEVMLQGIKDVAELEDPVGKVKMARELDDGLTLYQVTAPVGVLLVIFESRPEVIANITALSIKSGNAAILKGGKESVNTFREMAKIVNDTIAQFQSETGVPVGSVQLIETRQDVSDLLDQDEYIDLVVPRGSNALVRKIKDTTKIPVLGHADGICSIYLDEDADLIKAKRISLDAKTNYPAGCNAMETLLINPKFSKWWEVLENLTLEGGVTIHATKDLKTAYFDKLNELGKLTEAIQCKTVDADEEQDFDKEFLSLDLAAKFVTSTESAIQHINTHSSRHTDAIVTENKANAEKFMKGVDSSGVYWNASTRFADGFRYGFGAEVGISTSKIHARGPVGLDGLVSYQYQIRGDGQVASDYLGAGGNKAFVHKDLDIKTVTL”, the “soluble on expression in E. coli” value was “soluble”. For “MAHHHHHHMLKKGFTATKIIGKRCFQWWDNLNTSWKFAIGFSVLFPPLWNYNERRKAREKQVYYNKSIKDYVFFDIAIENKYVGRVLIGLYSDQVPLSVENFIQLAEGYKVKDKYIGYRNTFIHKIYPGIGLVGGNVLNDKEGLSIYGKKFPDENFDMEFVQDGDVALFNEGPHSNSSQFIITFSPMPILHKHNVVIGTVLKGMDIIRMIENVGTKLGNPMYNVKIINCGLYRSLEQDGPPFFNMLHISDKGNKNIISKKEFENLSEQQRQSLMEEIGKSEKQR”, the “soluble on expression in E. coli” value was “not soluble”.
